Data taken from article PMC4014428, “Enhanced Interaction between Pseudokinase and Kinase Domains in Gcn2 stimulates eIF2α Phosphorylation in Starved Cells” (PLoS Genetics, 2014).

Tests used:
[1] = molecular target: T1, HA epitope-tagged LexA fusion to a Gcn2 KD segment (residues 720–999) (S. cerevisiae, UniProt P15442 720-999); test: co-IP; WCEs (50 µg protein) of gcn2Δ yeast HQY132 co-expressing LexA-HA-KD(720–999) and Gcn2 (WT or mutant) immunoprecipitated with anti-HA antibodies; blots with anti-Gcn2 and anti-LexA; pellet:input ratios of Gcn2 normalised to LexA-HA-KD in the pellet, three experiments; conditions: partners not purified
T1 construct: the plasmid is PGAL-LexA-HA-GCN2 (720–999); also called HA-LexA-KD; LexA-HA-KD; source: yeast gcn2Δ strain HQY132, high-copy-number plasmid, in whole cell extract; not shown: LexA, N-terminal, kept; HA, N-terminal, kept

[2] = molecular target: T1, HA epitope-tagged LexA fusion to a Gcn2 …; test: co-IP; [35S]methionine-labelled in vitro translated YKD fragments incubated with 50 µg WCE of gcn2Δ yeast HQY132 expressing LexA-HA-KD(720–999); anti-HA agarose, 4°C 2 h, breaking buffer (50 mM Tris/HCl pH 7.5, 50 mM NaCl, 0.1% Triton, 1 mM DTT); SDS-PAGE and fluorography; pellet:input ratios normalised to WT YKD; conditions: partners not purified

B1: Gcn2-ΔYKD (enzyme, S. cerevisiae, UniProt P15442 1-1659, looked up)
chain: MSLSHLTLDQYYEIQCNELEAIRSIYMDDFTDLTKRKSSWDKQPQIIFEITLRSVDKEPVESSITLHFAMTPMYPYTAPEIEFKNVQNVMDSQLQMLKSEFKKIHNTSRGQEIIFEITSFTQEKLDEFQNVVNTQSLEDDRLQRIKETKEQLEKEEREKQQETIKKRSDEQRRIDEIVQRELEKRQDDDDDLLFNRTTQLDLQPPSEWVASGEAIVFSKTIKAKLPNNSMFKFKAVVNPKPIKLTSDIFSFSKQFLVKPYIPPESPLADFLMSSEMMENFYYLLSEIELDNSYFNTSNGKKEIANLEKELETVLKAKHDNVNRNLVSESVNSNSLELTPGDTITVRGNGGRTLSQSSIRRRSFNVGSRFSSINPATRSRYASDFEEIAVLGQGAFGQVVKARNALDSRYYAIKKIRHTEEKLSTILSEVMLLASLNHQYVVRYYAAWLEEDSMDENVFESTDEESDLSESSSDFEENDLLDQSSIFKNRTNHDLDNSNWDFISGSGYPDIVFENSSRDDENEDLDHDTSSTSSSESQDDTDKESKSIQNVPRRRNFVKPMTAVKKKSTLFIQMEYCENRTLYDLIHSENLNQQRDEYWRLFRQILEALSYIHSQGIIHRDLKPMNIFIDESRNVKIGDFGLAKNVHRSLDILKLDSQNLPGSSDNLTSAIGTAMYVATEVLDGTGHYNEKIDMYSLGIIFFEMIYPFSTGMERVNILKKLRSVSIEFPPDFDDNKMKVEKKIIRLLIDHDPNKRPGARTLLNSGWLPVKHQDEVIKEALKSLSNPSSPWQQQVRESLFNQSYSLTNDILFDNSVPTSTPFANILRSQMTEEVVKIFRKHGGIENNAPPRIFPKAPIYGTQNVYEVLDKGGTVLQLQYDLTYPMARYLSKNPSLISKQYRMQHVYRPPDHSRSSLEPRKFGEIDFDIISKSSSESGFYDAESLKIIDEILTVFPVFEKTNTFFILNHADILESVFNFTNIDKAQRPLVSRMLSQVGFARSFKEVKNELKAQLNISSTALNDLELFDFRLDFEAAKKRLYKLMIDSPHLKKIEDSLSHISKVLSYLKPLEVARNVVISPLSNYNSAFYKGGIMFHAVYDDGSSRNMIAAGGRYDTLISFFARPSGKKSSNTRKAVGFNLAWETIFGIAQNYFKLASGNRIKKRNRFLKDTAVDWKPSRCDVLISSFSNSLLDTIGVTILNTLWKQNIKADMLRDCSSVDDVVTGAQQDGIDWILLIKQQAYPLTNHKRKYKPLKIKKLSTNVDIDLDLDEFLTLYQQETGNKSLINDSLTLGDKADEFKRWDENSSAGSSQEGDIDDVVAGSTNNQKVIYVPNMATRSKKANKREKWVYEDAARNSSNMILHNLSNAPIITVDALRDETLEIISITSLAQKEEWLRKVFGSGNNSTPRSFATSIYNNLSKEAHKGNRWAILYCHKTGKSSVIDLQR
notes: Gcn2, S. cerevisiae, otherwise full length, lacking the pseudokinase domain (YKD); also called gcn2-Δ324-538; source: yeast gcn2Δ strain HQY132, high-copy plasmid (p630 backbone), in whole cell extract
proportion co-immunoprecipitated relative to WT Gcn2 [1]: ~0.33 fraction of WT

B2: Gcn2 YKD fragment (230–604) L527I (domain or fragment, S. cerevisiae, UniProt P15442 230-604, looked up)
chain: MFKFKAVVNPKPIKLTSDIFSFSKQFLVKPYIPPESPLADFLMSSEMMENFYYLLSEIELDNSYFNTSNGKKEIANLEKELETVLKAKHDNVNRLFGYTVERMGRNNATFVWKIRLLTEYCNYYPLGDLIQSVGFVNLATARIWMIRLLEGLEAIHKLGIVHKCINLETVILVKDADFGSTIPKLVHSTYGYTVLNMLSRYPNKNGSSVELSPSTWIAPELLKFNNAKPQRLTDIWQLGVLFIQIISGSDIVMNFETPQEFLDSTSMDETLYDLLSKMLNNDPKKRLGTLELLPMKFIRTNIDSTINRFNLVSESVNSNSLELTPGDTITVRGNGGRTLSQSSIRRRSFNVGSRFSSINPATRSRYASDFEEIAV
modifications: [35S]-methionine-labeled
notes: Gcn2 YKD segment, S. cerevisiae, residues 230-604; also called L527I YKD fragment; source: in vitro translated (TNT T7 Coupled Reticulocyte Lysate System), partially purified by ammonium sulfate precipitation
level co-immunoprecipitated relative to WT YKD [2]: ~4 fold of WT

B3: Gcn2 YKD fragment (230–604) R528A (domain or fragment, S. cerevisiae, UniProt P15442 230-604, looked up)
chain: MFKFKAVVNPKPIKLTSDIFSFSKQFLVKPYIPPESPLADFLMSSEMMENFYYLLSEIELDNSYFNTSNGKKEIANLEKELETVLKAKHDNVNRLFGYTVERMGRNNATFVWKIRLLTEYCNYYPLGDLIQSVGFVNLATARIWMIRLLEGLEAIHKLGIVHKCINLETVILVKDADFGSTIPKLVHSTYGYTVLNMLSRYPNKNGSSVELSPSTWIAPELLKFNNAKPQRLTDIWQLGVLFIQIISGSDIVMNFETPQEFLDSTSMDETLYDLLSKMLNNDPKKRLGTLELLPMKFLATNIDSTINRFNLVSESVNSNSLELTPGDTITVRGNGGRTLSQSSIRRRSFNVGSRFSSINPATRSRYASDFEEIAV
modifications: [35S]-methionine-labeled
notes: Gcn2 YKD segment, S. cerevisiae, residues 230-604; also called R528A YKD fragment; source: in vitro translated (TNT T7 Coupled Reticulocyte Lysate System), partially purified by ammonium sulfate precipitation
level co-immunoprecipitated relative to WT YKD [2]: 60 % of WT

B4: Gcn2 YKD fragment (230–604) T518A/L527I (domain or fragment, S. cerevisiae, UniProt P15442 230-604, looked up)
chain: MFKFKAVVNPKPIKLTSDIFSFSKQFLVKPYIPPESPLADFLMSSEMMENFYYLLSEIELDNSYFNTSNGKKEIANLEKELETVLKAKHDNVNRLFGYTVERMGRNNATFVWKIRLLTEYCNYYPLGDLIQSVGFVNLATARIWMIRLLEGLEAIHKLGIVHKCINLETVILVKDADFGSTIPKLVHSTYGYTVLNMLSRYPNKNGSSVELSPSTWIAPELLKFNNAKPQRLTDIWQLGVLFIQIISGSDIVMNFETPQEFLDSTSMDETLYDLLSKMLNNDPKKRLGALELLPMKFIRTNIDSTINRFNLVSESVNSNSLELTPGDTITVRGNGGRTLSQSSIRRRSFNVGSRFSSINPATRSRYASDFEEIAV
modifications: [35S]-methionine-labeled
notes: Gcn2 YKD segment, S. cerevisiae, residues 230-604; also called T518A/L527I YKD fragment; source: in vitro translated (TNT T7 Coupled Reticulocyte Lysate System), partially purified by ammonium sulfate precipitation
level co-immunoprecipitated relative to WT YKD [2]: ~4 fold of WT
